Square brackets hold non-standard residues; d marks the D form. Ends that are not written are not given here.
Molecular target: CD44s (UniProt P16070-12 21-361)
Test: flow cytometry on cells

fold increase of binding versus vector only cells: 1.5 fold
Binder: [dK][dI][dK][dM][dV][dI][dS][dW][dK]G (also: 5(6)-FAM label, position not given here) [5(6)-FAM-HYD1]
